Laboratory results published in US20240059799A1 (Pfizer, published 2024).

Legend:
rat IL-12 = molecular target: T1, rat IL-12 (rat, UniProt P43432 23-335; Q9R103 23-215, limits assumed); assay: SPR, Biacore 8K+, 37 C; antibody captured by anti-human Fc, cytokine injected
T1 chain 1: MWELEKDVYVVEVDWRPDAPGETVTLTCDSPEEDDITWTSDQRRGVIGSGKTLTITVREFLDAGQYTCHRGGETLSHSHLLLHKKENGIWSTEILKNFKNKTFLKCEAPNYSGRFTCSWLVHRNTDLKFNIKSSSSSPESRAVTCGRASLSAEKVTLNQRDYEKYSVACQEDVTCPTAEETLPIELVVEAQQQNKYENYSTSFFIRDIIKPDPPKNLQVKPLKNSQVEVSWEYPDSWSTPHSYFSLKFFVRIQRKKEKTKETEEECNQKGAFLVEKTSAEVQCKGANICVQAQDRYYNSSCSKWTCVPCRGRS
T1 chain 2: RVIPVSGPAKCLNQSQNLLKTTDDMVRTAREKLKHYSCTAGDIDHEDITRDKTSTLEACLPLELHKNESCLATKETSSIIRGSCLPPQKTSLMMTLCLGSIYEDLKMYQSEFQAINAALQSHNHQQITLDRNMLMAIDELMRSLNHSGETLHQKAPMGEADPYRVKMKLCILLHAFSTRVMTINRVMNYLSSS
Procedure: (§1) In order to determine binding to TL1A, kinetic assays were conducted at 37° C. using a collection rate of 10 Hz on a Biacore™ T200 instrument (GE Healthcare). […] For the analysis of the p40 binding arm, kinetic assays were conducted at 37° C. using a collection rate of 10 Hz on a Biacore™ 8 K+ instrument (GE Healthcare).

mouse IL-12 = molecular target: T2, mouse IL-12 (mouse, UniProt P43432 23-335; P43431 23-215); assay: as above
T2 sequence 1: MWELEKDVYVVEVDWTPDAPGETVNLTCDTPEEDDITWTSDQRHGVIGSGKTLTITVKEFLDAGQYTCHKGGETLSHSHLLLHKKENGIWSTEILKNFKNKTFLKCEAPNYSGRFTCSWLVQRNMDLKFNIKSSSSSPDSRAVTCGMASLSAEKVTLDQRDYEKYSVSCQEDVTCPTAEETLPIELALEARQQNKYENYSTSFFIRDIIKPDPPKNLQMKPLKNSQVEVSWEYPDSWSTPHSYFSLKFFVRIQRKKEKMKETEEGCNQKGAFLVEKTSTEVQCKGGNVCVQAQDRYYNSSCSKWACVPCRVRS
T2 sequence 2: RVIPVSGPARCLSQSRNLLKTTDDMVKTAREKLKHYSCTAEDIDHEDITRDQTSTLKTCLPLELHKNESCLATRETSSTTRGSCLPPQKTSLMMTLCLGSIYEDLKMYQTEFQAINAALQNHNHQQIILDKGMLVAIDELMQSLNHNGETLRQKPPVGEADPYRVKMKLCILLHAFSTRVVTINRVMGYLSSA
Procedure: as §1

human IL-23 = molecular target: T3, human IL-23 (human, UniProt P29460 23-328; Q9NPF7 20-189); assay: as above
T3 construct: also called recombinant human IL-23 (p40/p19)
T3 sequence 1: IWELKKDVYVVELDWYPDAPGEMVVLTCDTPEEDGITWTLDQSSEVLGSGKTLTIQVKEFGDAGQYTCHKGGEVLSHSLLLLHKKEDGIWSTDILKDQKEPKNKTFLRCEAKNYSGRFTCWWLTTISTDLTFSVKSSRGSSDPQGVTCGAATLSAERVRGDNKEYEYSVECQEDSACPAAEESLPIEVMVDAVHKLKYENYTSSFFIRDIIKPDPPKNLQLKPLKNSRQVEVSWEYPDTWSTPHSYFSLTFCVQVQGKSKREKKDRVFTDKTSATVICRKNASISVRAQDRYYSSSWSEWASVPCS
T3 sequence 2: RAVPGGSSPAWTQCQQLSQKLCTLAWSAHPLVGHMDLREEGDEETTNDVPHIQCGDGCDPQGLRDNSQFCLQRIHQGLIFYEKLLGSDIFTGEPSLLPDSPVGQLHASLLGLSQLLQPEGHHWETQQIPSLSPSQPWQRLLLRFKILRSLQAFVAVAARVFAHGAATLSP
Procedure: as §1

rabbit IL-12 = molecular target: T4, rabbit IL-12 (rabbit); assay: as above
T4 chain 1: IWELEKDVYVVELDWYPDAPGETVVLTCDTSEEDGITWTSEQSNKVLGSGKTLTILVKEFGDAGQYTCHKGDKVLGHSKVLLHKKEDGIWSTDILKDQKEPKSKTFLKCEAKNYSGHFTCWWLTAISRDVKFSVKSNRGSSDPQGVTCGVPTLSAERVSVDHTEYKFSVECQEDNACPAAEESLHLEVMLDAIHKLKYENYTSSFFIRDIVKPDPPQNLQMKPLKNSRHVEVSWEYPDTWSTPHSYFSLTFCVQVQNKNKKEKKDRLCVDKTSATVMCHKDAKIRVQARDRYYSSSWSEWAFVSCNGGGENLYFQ
T4 chain 2: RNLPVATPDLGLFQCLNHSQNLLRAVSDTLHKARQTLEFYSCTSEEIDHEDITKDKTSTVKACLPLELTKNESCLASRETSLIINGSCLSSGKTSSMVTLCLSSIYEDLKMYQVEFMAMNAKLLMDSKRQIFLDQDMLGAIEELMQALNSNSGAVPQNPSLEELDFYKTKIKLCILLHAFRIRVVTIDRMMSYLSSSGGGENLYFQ
Procedure: as §1

human IL-12 = molecular target: T5, human IL-12 (human, UniProt P29460 23-328; P29459 23-219); assay: cell-based or functional assay
T5 sequence 1: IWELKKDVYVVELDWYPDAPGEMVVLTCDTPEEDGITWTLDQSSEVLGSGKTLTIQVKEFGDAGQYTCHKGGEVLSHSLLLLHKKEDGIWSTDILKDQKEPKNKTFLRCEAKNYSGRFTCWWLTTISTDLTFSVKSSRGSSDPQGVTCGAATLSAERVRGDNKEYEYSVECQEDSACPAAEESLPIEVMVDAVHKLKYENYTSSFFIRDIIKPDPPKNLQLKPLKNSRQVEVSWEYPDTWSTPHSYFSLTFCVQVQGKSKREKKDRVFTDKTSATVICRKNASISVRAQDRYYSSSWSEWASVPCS
T5 sequence 2: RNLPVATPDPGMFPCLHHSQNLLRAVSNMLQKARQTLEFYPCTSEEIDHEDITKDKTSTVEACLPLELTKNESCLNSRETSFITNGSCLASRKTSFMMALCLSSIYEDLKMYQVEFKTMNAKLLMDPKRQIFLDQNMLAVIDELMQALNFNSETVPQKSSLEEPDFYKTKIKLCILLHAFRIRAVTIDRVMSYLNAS

recombinant human TL1A [1] = molecular target: T6, recombinant human TL1A (human, UniProt O95150 71-251); assay: cell-based or functional assay
T6 chain: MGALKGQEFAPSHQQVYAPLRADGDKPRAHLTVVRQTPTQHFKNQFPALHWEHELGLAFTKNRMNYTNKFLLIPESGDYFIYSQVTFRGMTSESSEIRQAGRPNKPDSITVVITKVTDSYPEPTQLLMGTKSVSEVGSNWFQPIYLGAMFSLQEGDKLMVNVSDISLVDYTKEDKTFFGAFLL

recombinant human TL1A [2] = molecular target: T6, recombinant human TL1A; assay: cell-based or functional assay

B1: p40TL1A-0033 bispecific antibody (bispecific antibody, human IgG1, kappa)
heavy: EVQLVQSGAEVKKPGESLKISCKGSGYSFTTYWLGWVRQMPGKGLDWIGIMSPVDSDIRYSPSFQGQVTMSVDKSITTAYLQWNSLKASDTAMYYCARRRPGQGYFDFWGQGTLVTVSSASTKGPSVFPLAPSSKSTSGGTAALGCLVKDYFPEPVTVSWNSGALTSGVHTFPAVLQSSGLYSLSSVVTVPSSSLGTQTYICNVNHKPSNTKVDKKVEPKSCDKTHTCPPCPAPEAAGAPSVFLFPPKPKDTLMISRTPEVTCVVVDVSHEDPEVKFNWYVDGVEVHNAKTKPREEQYNSTYRVVSVLTVLHQDWLNGKEYKCKVSNKALPAPIEKTISKAKGQPREPQVCTLPPSREEMTKNQVSLWCLVKGFYPSDIAVEWESNGQPENNYKTTPPVLDSDGSFFLYSKLTVDKSRWQQGNVFSCSVLHEALHSHYTQKSLSLSPGK
light: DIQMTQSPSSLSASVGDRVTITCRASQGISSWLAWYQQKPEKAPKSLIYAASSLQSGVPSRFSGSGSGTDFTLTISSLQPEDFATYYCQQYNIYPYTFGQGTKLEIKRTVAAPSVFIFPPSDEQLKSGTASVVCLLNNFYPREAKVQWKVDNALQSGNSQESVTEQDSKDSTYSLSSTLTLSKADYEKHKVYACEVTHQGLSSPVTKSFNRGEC
chain 1: not shown
chain 2: QVQLVQSGAEVKKPGASVKVSCKASGYDYTYYGISWVRQAPGQGLEWMGWISTYNTGTHYAPSLQGRVTMTTDTSTSTAYMELRSLRSDDTAVYYCARESYYGSGAFRGGMDVWGQGTTVTVSSASTKGPSVFPLAPSSKSTSGGTAALGCLVKDYFPEPVTVSWNSGALTSGVHTFPAVLQSSGLYSLSSVVTVPSSSLGTQTYICNVNHKPSNTKVDKKVEPKSC
notes: Single cell KiH, modified Fd format; IgG1 effector-function-minimized Fc with LS mutations
Rat IL-12
  binding result: no binding (tested: 200 nM)
Mouse IL-12
  binding result: no binding (tested: 200 nM)
Human IL-23
  Kd: 0.104 nM
  koff: 0.000294 s⁻¹
  kon: 2.82e+06 M⁻¹ s⁻¹
Rabbit IL-12
  binding result: no binding (tested: 200 nM)
Human IL-12
  KIT-225 STAT4 assay IL-12, Bioactivity relative to p40-0003: 1.4 fold
  KIT-225 STAT4 assay IL-12 IC50: 4.8 nM
Recombinant human TL1A [1]
  NF-κB assay IC50 (TF-1 reporter cells): 131 pM
  NF-κB assay, Bioactivity relative to TL1A-0372: 1.3 fold
Recombinant human TL1A [2]
  NF-κB assay IC50 (TF-1 reporter cells, 384-well): 0.31 nM
